# Laboratory results from patent publication WO2021065846A1 (dated 2021).
# Residue numbers refer to the chain shown, from its start.
# B1: anti-1C10 idiotype antibody #87 (IgG) (antibody, V domains shown)
# VH: QVQLVETGGGLVRPGNSLKLSCVTSGFTFSTYRMHWLRQPPGKRLEWIAVITVKSDGYGANYAQSLKDRFTISRDDSKSSVFLQMNRLREEDTATYYCSRGPDFYGSTYWYFDVWGAGTT
# VL: DIVMTQSPSSLDVSVGEKVSMSCKSSQSLLYRSNQKNYLAWYQQKPGQSPRLLIYWASTRESGVPDRFTGSGSGTDFTLTISSVKAEDLAVYYCQQYYSYSTFGAGTKVELK
# notes: Mouse variable regions cloned into human IgG expression vectors (pIgGH, pKVA2); Biotinylated where used as detection antibody; also called clone #87; IgG#87
# B2: anti-1C10 idiotype antibody #102 (IgG) (antibody, V domains shown)
# VH: EVKLLESGGGLVQPGISLKLSCAASGFDFTRDWMSWVRQAPGKGLEWIGEINPDSSAINYTPSLRDKFIISRDNAKNTLYLQMSKVRSEDTALYYCARRGYYGYYLDYWGQGTTLTVSS
# VL: B1 VL with D12A, S20T, L30F, Y31F, R51K, R60G, S101P, A105G, V109L, L111I
# notes: Mouse variable regions cloned into human IgG expression vectors (pIgGH, pKVA2)
# B3: Fab of anti-1C10 idiotype antibody #92 (Fab, V domains shown)
# VH: QVQLQQSGAELAKPGASVKMSCKASGYTFTNYWMHWVKQRPGQGLEWIGFINPNTDYTEYNQKFTDKATLTADKSSNTAYMQLSSLTSEDSALYYCAREDTWFAYWGQGTLVTVSA
# VL: DIQMTQSPASLSASVGETVTITCRASENIYSYLAWYQQKQGKSPQLLVYNAKALAEGVPSRFSGSGSGTQFSLKINSLQPEDFGSYYCQHHYRTPYAFGGGTKLEIK
# notes: VH cloned into a Fab heavy chain expression vector, co-expressed with the light chain vector, purified on His60 Ni resin; also called Fab#92; #92Fab
# B4: anti-1C10 idiotype antibody #92 (IgG) (antibody, V domains shown)
# VH: B3 VH
# VL: B3 VL
# notes: Mouse variable regions cloned into human IgG expression vectors (pIgGH, pKVA2); also called clone #92; IgG#92
# Assays:
# [1] = target: T1, anti-HIV-1 V3 antibody 1C10 (0.5γ); assay: SPR, Biacore T200, biotinylated 1C10 on SA chip, anti-idiotype antibody as analyte
# T1 construct: Used as whole bivalent IgG; also called anti-V3 antibody 1C10; 1C10-biotin
# T1 sequence (VH, as listed by the source, chain 1 of 2): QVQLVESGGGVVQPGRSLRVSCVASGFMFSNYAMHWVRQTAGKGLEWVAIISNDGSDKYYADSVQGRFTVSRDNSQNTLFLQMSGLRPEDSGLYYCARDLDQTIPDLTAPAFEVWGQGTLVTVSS
# T1 sequence (VL, as listed by the source, chain 2 of 2): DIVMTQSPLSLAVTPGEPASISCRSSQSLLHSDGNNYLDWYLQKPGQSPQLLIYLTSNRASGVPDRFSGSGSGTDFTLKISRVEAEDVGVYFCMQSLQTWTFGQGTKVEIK
# [2] = target: T1, anti-HIV-1 V3 antibody 1C10 (0.5γ); assay: inhibition ELISA: biotinylated 1C10 on NNT20 V3 peptide
# [3] = target: T1, anti-HIV-1 V3 antibody 1C10 (0.5γ); assay: sandwich ELISA: Fab #92 coated as capture, 1C10, biotinylated IgG #87 as detection
binder,measurement,setting,value
B1,Kd,[1],0.0343 nM
B2,binding result,[2],binds
B3,binding result,[3],binds
B4,binding result,[2],binds
